Literature values, collected in article PMC6154725.

Target: Tyr7 (UniProt position 9, HHGWGYGQDDG)
Assay: NMR
Conditions: solution, Zn enzyme, no ligand mentioned

Substance: Carbonic anhydrase II (HCA II) (Homo sapiens)
- pKa: ~7
